Substitutions are numbered along the chain they refer to.

The chains are these.
B1: Hu14G8 H2L1 (antibody, human IgG1, kappa, V domains shown)
VH: EVQLVESGGGLVQPGGSLKLSCAASGFTFSSYTMSWVRQTPEKRLELVAEINNSGDTTYYPDTVKGRFTISRDNAKNTLYLQMSSLKSEDTAMYYCARHYYYGGGYGGWFFDVWGQGTLVTVSS
VL: DIVMTQSAPSLPVTPGESVSISCRSNKSLLHSNGNTYLYWFLQKPGQSPQLLIYRVSNLASGVPDRFSGSGSGTAFTLKISRVEAEDVGVYYCMQHLEYPLTFGQGTKLEIKR
notes: also called humanized 14G8 VHv2/VLv1
B2: Hu14G8 H2L2 (antibody, human IgG1, kappa, V domains shown)
VH: B1 VH
VL: B1 VL with A8P, P9L, S18P, V19A, A75D
notes: also called humanized 14G8 VHv2/VLv2
B3: Hu14G8 H3L1 (antibody, human IgG1, kappa, V domains shown)
VH: B1 VH with S84N, K87R, S88A, M93V
VL: B1 VL
notes: also called humanized 14G8 VHv3/VLv1
B4: Hu14G8 H2L3 (antibody, human IgG1, kappa, V domains shown)
VH: B1 VH
VL: B1 VL with A8P, P9L, S18P, V19A, N26S, D65S, A75D
notes: also called humanized 14G8 VHv2/VLv3
B5: Hu9D5 H3L1 (antibody, human IgG1, kappa, V domains shown)
VH: EVQLVESGGGLVQPGGSLRLSCAASGFTFSSYTMSWVRQAPGKGLEWVSEISNSGDTTYYPDTVKGRFTFSRDNAKNSLYLQSNLLRAEDTAVYYCARHYYYGGGYGGWFFDVWGQGTTVTVSS
VL: B1 VL with A8P, P9L, S18P, V19A, N26S, A75D
notes: also called humanized 9D5 VHv3/VLv1
B6: Hu9D5 H4L1 (antibody, human IgG1, kappa, V domains shown)
VH: B5 VH with F70I
VL: B1 VL with A8P, P9L, S18P, V19A, N26S, A75D
notes: also called humanized 9D5 VHv4/VLv1
B7: Hu9D5 H2L5 (antibody, human IgG1, kappa, V domains shown)
VH: B5 VH with W47L, S49A
VL: B1 VL with N26S, K44R, D65S, K79R
notes: also called humanized 9D5 VHv2/VLv5

The first assay has as its target T1, recombinant human TTR F87M/L110M (human, UniProt P02766 21-147). Nature of the assay: SPR (Biacore), mAb captured on anti-human chip, TTR F87M/L110M as analyte. Background: SPR reads the build-up and loss of mass on a sensor chip optically.
As a reminder, the Kd is the concentration at which binding is half-saturated. One may read the koff as the first-order rate constant of dissociation. By kon is commonly meant the second-order rate constant of association. For the molecule B1, the Kd was 2.26 nM, the koff turned out to be 0.000693 s⁻¹ and the kon worked out at 307000 M⁻¹ s⁻¹.
For B2 the same measures were 2.1 nM, 0.000683 s⁻¹ and 326000 M⁻¹ s⁻¹.
As to B3, the Kd turned out to be 1.76 nM, the koff was 0.000677 s⁻¹ and the kon came out at 386000 M⁻¹ s⁻¹.
Regarding B4, the Kd came out at 1.24 nM, the koff came out at 0.000318 s⁻¹ and the kon was determined as 252000 M⁻¹ s⁻¹.

In a further assay the target is T1, recombinant human TTR F87M/L110M. The description is as above. The source holds these as a separate data set.
Turning to B5, the Kd stood at 4.32 nM, the koff is 0.000657 s⁻¹ and the kon was 152000 M⁻¹ s⁻¹.
As to B6, the dissociation constant Kd was found to be 2.09 nM, the koff came to 0.000533 s⁻¹ and the on-rate constant (kon) stood at 254000 M⁻¹ s⁻¹.
For the molecule B7, the Kd was 6.84 nM, the koff came out at 0.000785 s⁻¹ and the kon stood at 115000 M⁻¹ s⁻¹.
